Data set [1] concerns the molecule itself. Kind of data set: AUC.
The data set “SEC” deals with the molecule itself. Kind of data set: SEC. (In general: SEC sorts molecules by how far they enter the pores of the column.)
Data set [2] concerns the molecule itself. Kind of data set: AUC. This is another data set of the same source.

B1: Burkholderia thailandensis inosine-5'-monophosphate dehydrogenase (enzyme, Burkholderia thailandensis strain E264, UniProt Q2SWW9 1-486, looked up)
chain: MRLIQKALTFDDVLLVPAFSDVLPRDTSLKTQLTRHISLNMPLVSAAMDTVTEGRLAIAMAQQGGVGIVHKNLTPVEQAREVAKVKRFESGVVRDPITVPPSMKVRDVIALSRQHGISGFPVLEGPKLVGIVTNRDLRFETRLDEPVKSIMTPRERLVTVAEGTPLAEAKALMHSHRLERVLVVNDAFELRGLMTVKDITKQTEHPEACKDEHGKLRVGAAVGVGADNEERVELLVQAGVDVIVVDTAHGHSKGVLERVRWVKQNFPKVEVIGGNIATAAAAKALVEYGADAVKVGIGPGSICTTRIVAGVGVPQISAIANVSDALRGTGVPCIADGGIRFSGDVSKALAAGANAVMMGSMFAGTEEAPGDVFLYQGRQYKSYRGMGSVGAMKDGAADRYFQDNSANIDKLVPEGIEGRVAYKGSVNAIIFQLIGGVRASMGYCGCKTIAEMHEKAEFVEITAAGMRESHVHDVQITKEAPNYHVD
notes: also called IMPDHbt; class II IMPDH
As a reminder, the stoichiometry N is a count of units in the complex or per binding partner. B1: the “stoichiometry N” value in “AUC [1]” was 8; in “SEC” it was ~4; in the data set “AUC [2]”, 4.

B2: Pseudomonas aeruginosa inosine-5'-monophosphate dehydrogenase (enzyme, UniProt Q9HXM5 1-489, looked up)
chain: MLRISQEALTFDDVLLIPGYSEVLPKDVSLKTRLTRGIELNIPLVSAAMDTVTEARLAIAMAQEGGIGIIHKNMGIEQQAAEVRKVKKHETAIVRDPVTVTPSTKIIELLQMAREYGFSGFPVVEQGELVGIVTGRDLRVKPNAGDTVAAIMTPKDKLVTAREGTPLEEMKAKLYENRIEKMLVVDENFYLRGLVTFRDIEKAKTYPLASKDEQGRLRVGAAVGTGADTGERVAALVAAGVDVVVVDTAHGHSKGVIERVRWVKQTFPDVQVIGGNIATAEAAKALAEAGADAVKVGIGPGSICTTRIVAGVGVPQISAIANVAAALEGTGVPLIADGGIRFSGDLAKAMVAGAYCVMMGSMFAGTEEAPGEIELFQGRSYKSYRGMGSLGAMSGSQGSSDRYFQDASAGAEKLVPEGIEGRVPYKGALSAIVHQLMGGLRAAMGYTGSADIQQMRTQPQFVRITGAGMAESHVHDVQITKEAPNYRVG
notes: also called IMPDHpa; class I IMPDH
For B2, the “stoichiometry N” value was 8 in the data set “AUC [1]” and ~8 in “SEC”.

B3: Legionella pneumophila subsp. pneumophila inosine-5'-monophosphate dehydrogenase (enzyme)
chain: MPLSIVQQSLTFDDVLLVPAHSTILPKDVSLKTKLTRAIHLNMPLISAAMDTVTEARLAIALAQEGGLGIIHKNMSIADQAEEVRRVKKFESGMVKDPISVTPDLTVKELLAVMTKYNFSGVPVVDGKHLVGIVTSRDIRFETNMNLTVAQVMTPKGRLVTVKEGASREEVRSLLHKHRIEKLLVVNENFELRGLITVKDIQKAKDNPYACKDSFEQLRVGAAVGVGEGTDERVAALVESGVDVIVVDTAHGHSQGVLNRVKWIKKNYPDVQVIGGNIATAAAARDLYEAGADAVKVGIGPGSICTTRIVTGVGIPQISAIANVAQELKGIIPVIADGGIRFSGDVCKALAAGADTVMLGSMFAGTEESPGEIELYQGRTYKNYRGMGSIGAMSLAQGSSDRYFQDASLGTEKLVPEGIEGRVPYKGPVQTIIHQLLGGLRSCMGYTGCATIEELHSKTEFVQVTNAGMRESHVHDVSITKQAPNYQVDN
notes: also called IMPDHlpp; class I IMPDH
In the case of B3, the “stoichiometry N” value in the data set “SEC” is ~8; in “AUC [2]”, 8.

B4: Neisseria meningitidis inosine-5'-monophosphate dehydrogenase (enzyme, Neisseria meningitidis strain FAM18, UniProt Q9JZB5 1-487, looked up)
chain: MRIVEKAYTFDDVLLVPAHSTVLPRDVKLQTKLTREITLNLPLLSAAMDTVTEARLAISMAQEGGIGIIHKNMPPEMQARAVSKVKRHESGVVKDPVTVAPTTLIREVLEMRAQRKRKMSGLPVVENGKVVGIVTNRDLRFENRVDLPVSAIMTPRERLVTVPEGTSIDEARELMHTHKVERVLVLNEKDELKGLITVKDILKTTEFPNANKDSEGRLRVGAAVGTGGDTEERVKALVEAGVDVIVVDTAHGHSQGVIDRVRWVKETYPHIQVIGGNIATAKAALDLVAAGADAVKVGIGPGSICTTRIVAGVGVPQLTAIHNVAEALKGTGVPLIADGGIRFSGDIAKALAAGAYSVMLGGMFAGTEEAPGEIELYQGRSYKSYRGMGSLGAMSQGSADRYFQDKTDSTDKYVPEGIEGRVPYKGPIVNIIHQLTGGLRSSMGYLGCANIAEMHEKAEFVEITSAGMSESHVHDVQITKEAPNYHR
notes: also called IMPDHnm; class I IMPDH
On to B4, for which the “stoichiometry N” value in “SEC” was ~8; in “AUC [2]” it was 8.

B5: Staphylococcus aureus inosine-5'-monophosphate dehydrogenase (enzyme, Staphylococcus aureus strain N315, UniProt P99106 1-488, looked up)
chain: MWESKFAKESLTFDDVLLIPAQSDILPKDVDLSVQLSDKVKLNIPVISAGMDTVTESKMAIAMARQGGLGVIHKNMGVEEQADEVQKVKRSENGVISNPFFLTPEESVYEAEALMGKYRISGVPIVDNKEDRNLVGILTNRDLRFIEDFSIKIVDVMTQENLITAPVNTTLEEAEKILQKHKIEKLPLVKDGRLEGLITIKDIEKVIEFPNAAKDEHGRLLVAAAIGISKDTDIRAQKLVEAGVDVLVIDTAHGHSKGVIDQVKHIKKTYPEITLVAGNVATAEATKDLFEAGADIVKVGIGPGSICTTRVVAGVGVPQITAIYDCATEARKHGKAIIADGGIKFSGDIIKALAAGGHAVMLGSLLAGTEESPGATEIFQGRQYKVYRGMGSLGAMEKGSNDRYFQEDKAPKKFVPEGIEGRTAYKGALQDTIYQLMGGVRAGMGYTGSHDLRELREEAQFTRMGPAGLAESHPHNIQITKESPNYSF
notes: also called IMPDHsa; class II IMPDH
With B5, the “stoichiometry N” value in “AUC [1]” is 8; in “SEC”, ~4; in the data set “AUC [2]” it was 4.

For the origin of these results see article PMC4338043 (PLoS ONE, 2015).
